Here are results for five molecules from patent publication US20140087995A1 (published 2014).

Numbered stars: 1 amine (or outer) side, 2 acyl side, 3 side chain; on linkers, the order of the positions; unused ones are H or OH. Bridge positions count the residues as written; N and C are the ends. Side chains are listed from the residue outwards. Ends that are not written are not given here. * marks the point of attachment. C20 diacid = O=C(O)CCCCCCCCCCCCCCCCCCC(=O)*; γGlu = O=C(O)[C@H](CCC(=O)[*:2])N[*:1]

Sequences and labels used below:
T1: rat calcitonin receptor (rat, UniProt P32214 25-516)
T1 construct: whole, on cells; Used as membranes prepared from BHK tk'ts 13 cells transiently transfected with the rat calcitonin receptor (Assay VIII); also called rCTR; rat calcitonin (a) receptor
T1 sequence (looked up): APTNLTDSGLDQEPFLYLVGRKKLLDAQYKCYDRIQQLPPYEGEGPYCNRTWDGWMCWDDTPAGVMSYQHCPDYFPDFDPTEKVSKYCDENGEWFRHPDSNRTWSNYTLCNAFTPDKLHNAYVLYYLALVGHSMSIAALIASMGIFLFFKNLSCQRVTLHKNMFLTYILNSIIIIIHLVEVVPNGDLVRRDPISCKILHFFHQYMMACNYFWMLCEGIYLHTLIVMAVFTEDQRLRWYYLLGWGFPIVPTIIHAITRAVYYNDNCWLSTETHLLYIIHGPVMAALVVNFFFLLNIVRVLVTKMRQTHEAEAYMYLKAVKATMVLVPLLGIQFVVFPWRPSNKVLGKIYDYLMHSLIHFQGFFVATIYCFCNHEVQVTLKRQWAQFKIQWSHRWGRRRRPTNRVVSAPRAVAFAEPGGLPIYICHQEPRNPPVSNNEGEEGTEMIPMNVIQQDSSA

T2: human calcitonin receptor (human, UniProt P30988 25-474)
T2 construct: whole, on cells; Used as membranes prepared from a BHK tk'ts 13 cell line stably transfected with the human calcitonin receptor (Assay VII); also called hCTR; hCT
T2 sequence (looked up): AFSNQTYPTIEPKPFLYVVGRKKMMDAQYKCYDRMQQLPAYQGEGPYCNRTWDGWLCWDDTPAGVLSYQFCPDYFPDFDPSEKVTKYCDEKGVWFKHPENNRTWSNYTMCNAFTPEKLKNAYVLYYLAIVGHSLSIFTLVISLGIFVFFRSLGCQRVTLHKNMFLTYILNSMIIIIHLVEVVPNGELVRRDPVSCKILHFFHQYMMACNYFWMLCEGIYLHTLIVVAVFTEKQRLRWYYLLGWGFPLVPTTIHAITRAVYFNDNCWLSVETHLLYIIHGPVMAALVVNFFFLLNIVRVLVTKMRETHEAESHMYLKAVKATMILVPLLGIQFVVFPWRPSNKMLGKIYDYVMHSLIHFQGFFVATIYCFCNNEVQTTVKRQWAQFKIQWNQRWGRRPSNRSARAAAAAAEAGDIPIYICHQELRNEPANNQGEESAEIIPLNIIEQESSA

T3: rat amylin receptor (rat calcitonin receptor + rat RAMP 3) (rat, UniProt P32214 25-516; Q9JJ73 23-147)
T3 construct: whole, on cells; Used as membranes prepared from BHK tk'ts 13 cells transiently transfected with rat calcitonin receptor and rat RAMP 3 (Assay VI); also called rAmylin-R; rat amylin 3(a) receptor
T3 sequence (looked up) 1: T1 sequence (looked up)
T3 sequence (looked up) 2: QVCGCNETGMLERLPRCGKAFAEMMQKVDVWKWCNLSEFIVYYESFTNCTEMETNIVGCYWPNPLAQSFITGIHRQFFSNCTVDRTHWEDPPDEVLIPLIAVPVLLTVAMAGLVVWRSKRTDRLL

B1: N^ε1-[(4S)-4-carboxy-4-(19-carboxynonadecanoylamino)butanoyl]-[His14,Arg17,Pro21,Pro27,His34]-h-amylin (peptide)
peptide: K([γGlu-C20 diacid])CNTATCATQRLAHFLRHSSPNFGAIPSSTNVGHNTY-NH2
modifications: disulfide 2-7; N-terminus assumed
SMILES: CC[C@H](C)[C@H](NC(=O)[C@H](C)NC(=O)CNC(=O)[C@H](Cc1ccccc1)NC(=O)[C@H](CC(N)=O)NC(=O)[C@@H]1CCCN1C(=O)[C@H](CO)NC(=O)[C@H](CO)NC(=O)[C@H](Cc1c[nH]cn1)NC(=O)[C@H](CCCNC(=N)N)NC(=O)[C@H](CC(C)C)NC(=O)[C@H](Cc1ccccc1)NC(=O)[C@H](Cc1c[nH]cn1)NC(=O)[C@H](C)NC(=O)[C@H](CC(C)C)NC(=O)[C@H](CCCNC(=N)N)NC(=O)[C@H](CCC(N)=O)NC(=O)[C@@H](NC(=O)[C@H](C)NC(=O)[C@@H]1CSSC[C@H](NC(=O)[C@@H](N)CCCCNC(=O)CC[C@H](NC(=O)CCCCCCCCCCCCCCCCCCC(=O)O)C(=O)O)C(=O)N[C@@H](CC(N)=O)C(=O)N[C@@H]([C@@H](C)O)C(=O)N[C@@H](C)C(=O)N[C@@H]([C@@H](C)O)C(=O)N1)[C@@H](C)O)C(=O)N1CCC[C@H]1C(=O)N[C@@H](CO)C(=O)N[C@@H](CO)C(=O)N[C@H](C(=O)N[C@@H](CC(N)=O)C(=O)N[C@H](C(=O)NCC(=O)N[C@@H](Cc1c[nH]cn1)C(=O)N[C@@H](CC(N)=O)C(=O)N[C@H](C(=O)N[C@@H](Cc1ccc(O)cc1)C(N)=O)[C@@H](C)O)C(C)C)[C@@H](C)O
notes: Analogue of human amylin; also called compound 81
B2: N^ε1N^ε1-[(4S)-4-carboxy-4-(19-carboxynonadecanoylamino)butanoyl]-[His14,Arg17,Pro21,Pro27,Pro34]-h-amylin (peptide)
peptide: K([γGlu-C20 diacid])CNTATCATQRLAHFLRHSSPNFGAIPSSTNVGPNTY-NH2
modifications: disulfide 2-7; N-terminus assumed
SMILES: CC[C@H](C)[C@H](NC(=O)[C@H](C)NC(=O)CNC(=O)[C@H](Cc1ccccc1)NC(=O)[C@H](CC(N)=O)NC(=O)[C@@H]1CCCN1C(=O)[C@H](CO)NC(=O)[C@H](CO)NC(=O)[C@H](Cc1c[nH]cn1)NC(=O)[C@H](CCCNC(=N)N)NC(=O)[C@H](CC(C)C)NC(=O)[C@H](Cc1ccccc1)NC(=O)[C@H](Cc1c[nH]cn1)NC(=O)[C@H](C)NC(=O)[C@H](CC(C)C)NC(=O)[C@H](CCCNC(=N)N)NC(=O)[C@H](CCC(N)=O)NC(=O)[C@@H](NC(=O)[C@H](C)NC(=O)[C@@H]1CSSC[C@H](NC(=O)[C@@H](N)CCCCNC(=O)CC[C@H](NC(=O)CCCCCCCCCCCCCCCCCCC(=O)O)C(=O)O)C(=O)N[C@@H](CC(N)=O)C(=O)N[C@@H]([C@@H](C)O)C(=O)N[C@@H](C)C(=O)N[C@@H]([C@@H](C)O)C(=O)N1)[C@@H](C)O)C(=O)N1CCC[C@H]1C(=O)N[C@@H](CO)C(=O)N[C@@H](CO)C(=O)N[C@H](C(=O)N[C@@H](CC(N)=O)C(=O)N[C@H](C(=O)NCC(=O)N1CCC[C@H]1C(=O)N[C@@H](CC(N)=O)C(=O)N[C@H](C(=O)N[C@@H](Cc1ccc(O)cc1)C(N)=O)[C@@H](C)O)C(C)C)[C@@H](C)O
notes: Analogue of human amylin; also called compound 67
B3: N^ε1-[(4S)-4-carboxy-4-(19-carboxynonadecanoylamino)butanoyl]-[His14,Arg17,Pro21,Pro27,His35]-h-amylin (peptide)
peptide: K([γGlu-C20 diacid])CNTATCATQRLAHFLRHSSPNFGAIPSSTNVGSHTY-NH2
modifications: disulfide 2-7; N-terminus assumed
SMILES: CC[C@H](C)[C@H](NC(=O)[C@H](C)NC(=O)CNC(=O)[C@H](Cc1ccccc1)NC(=O)[C@H](CC(N)=O)NC(=O)[C@@H]1CCCN1C(=O)[C@H](CO)NC(=O)[C@H](CO)NC(=O)[C@H](Cc1c[nH]cn1)NC(=O)[C@H](CCCNC(=N)N)NC(=O)[C@H](CC(C)C)NC(=O)[C@H](Cc1ccccc1)NC(=O)[C@H](Cc1c[nH]cn1)NC(=O)[C@H](C)NC(=O)[C@H](CC(C)C)NC(=O)[C@H](CCCNC(=N)N)NC(=O)[C@H](CCC(N)=O)NC(=O)[C@@H](NC(=O)[C@H](C)NC(=O)[C@@H]1CSSC[C@H](NC(=O)[C@@H](N)CCCCNC(=O)CC[C@H](NC(=O)CCCCCCCCCCCCCCCCCCC(=O)O)C(=O)O)C(=O)N[C@@H](CC(N)=O)C(=O)N[C@@H]([C@@H](C)O)C(=O)N[C@@H](C)C(=O)N[C@@H]([C@@H](C)O)C(=O)N1)[C@@H](C)O)C(=O)N1CCC[C@H]1C(=O)N[C@@H](CO)C(=O)N[C@@H](CO)C(=O)N[C@H](C(=O)N[C@@H](CC(N)=O)C(=O)N[C@H](C(=O)NCC(=O)N[C@@H](CO)C(=O)N[C@@H](Cc1c[nH]cn1)C(=O)N[C@H](C(=O)N[C@@H](Cc1ccc(O)cc1)C(N)=O)[C@@H](C)O)C(C)C)[C@@H](C)O
notes: Analogue of human amylin; also called compound 66
B4: N^ε1-[(4S)-4-carboxy-4-(19-carboxynonadecanoylamino)butanoyl]-[His14,Arg17,Pro21,Pro27]-h-amylin (peptide)
peptide: K([γGlu-C20 diacid])CNTATCATQRLAHFLRHSSPNFGAIPSSTNVGSNTY-NH2
modifications: disulfide 2-7; N-terminus assumed
SMILES: CC[C@H](C)[C@H](NC(=O)[C@H](C)NC(=O)CNC(=O)[C@H](Cc1ccccc1)NC(=O)[C@H](CC(N)=O)NC(=O)[C@@H]1CCCN1C(=O)[C@H](CO)NC(=O)[C@H](CO)NC(=O)[C@H](Cc1c[nH]cn1)NC(=O)[C@H](CCCNC(=N)N)NC(=O)[C@H](CC(C)C)NC(=O)[C@H](Cc1ccccc1)NC(=O)[C@H](Cc1c[nH]cn1)NC(=O)[C@H](C)NC(=O)[C@H](CC(C)C)NC(=O)[C@H](CCCNC(=N)N)NC(=O)[C@H](CCC(N)=O)NC(=O)[C@@H](NC(=O)[C@H](C)NC(=O)[C@@H]1CSSC[C@H](NC(=O)[C@@H](N)CCCCNC(=O)CC[C@H](NC(=O)CCCCCCCCCCCCCCCCCCC(=O)O)C(=O)O)C(=O)N[C@@H](CC(N)=O)C(=O)N[C@@H]([C@@H](C)O)C(=O)N[C@@H](C)C(=O)N[C@@H]([C@@H](C)O)C(=O)N1)[C@@H](C)O)C(=O)N1CCC[C@H]1C(=O)N[C@@H](CO)C(=O)N[C@@H](CO)C(=O)N[C@H](C(=O)N[C@@H](CC(N)=O)C(=O)N[C@H](C(=O)NCC(=O)N[C@@H](CO)C(=O)N[C@@H](CC(N)=O)C(=O)N[C@H](C(=O)N[C@@H](Cc1ccc(O)cc1)C(N)=O)[C@@H](C)O)C(C)C)[C@@H](C)O
notes: Analogue of human amylin; also called compound 70
B5: N^ε1-[(4S)-4-carboxy-4-(19-carboxynonadecanoylamino)butanoyl]-[His14,Arg17,Pro21,Pro27,Pro31]-h-amylin (peptide)
peptide: K([γGlu-C20 diacid])CNTATCATQRLAHFLRHSSPNFGAIPSSTPVGSNTY-NH2
modifications: disulfide 2-7; N-terminus assumed
SMILES: CC[C@H](C)[C@H](NC(=O)[C@H](C)NC(=O)CNC(=O)[C@H](Cc1ccccc1)NC(=O)[C@H](CC(N)=O)NC(=O)[C@@H]1CCCN1C(=O)[C@H](CO)NC(=O)[C@H](CO)NC(=O)[C@H](Cc1c[nH]cn1)NC(=O)[C@H](CCCNC(=N)N)NC(=O)[C@H](CC(C)C)NC(=O)[C@H](Cc1ccccc1)NC(=O)[C@H](Cc1c[nH]cn1)NC(=O)[C@H](C)NC(=O)[C@H](CC(C)C)NC(=O)[C@H](CCCNC(=N)N)NC(=O)[C@H](CCC(N)=O)NC(=O)[C@@H](NC(=O)[C@H](C)NC(=O)[C@@H]1CSSC[C@H](NC(=O)[C@@H](N)CCCCNC(=O)CC[C@H](NC(=O)CCCCCCCCCCCCCCCCCCC(=O)O)C(=O)O)C(=O)N[C@@H](CC(N)=O)C(=O)N[C@@H]([C@@H](C)O)C(=O)N[C@@H](C)C(=O)N[C@@H]([C@@H](C)O)C(=O)N1)[C@@H](C)O)C(=O)N1CCC[C@H]1C(=O)N[C@@H](CO)C(=O)N[C@@H](CO)C(=O)N[C@H](C(=O)N1CCC[C@H]1C(=O)N[C@H](C(=O)NCC(=O)N[C@@H](CO)C(=O)N[C@@H](CC(N)=O)C(=O)N[C@H](C(=O)N[C@@H](Cc1ccc(O)cc1)C(N)=O)[C@@H](C)O)C(C)C)[C@@H](C)O
notes: Analogue of human amylin; also called compound 62

One assay deals with T1, rat calcitonin receptor. The assay can be described thus: IC50 on rat CTR divided by IC50 on rat amylin receptor (Assays VIII/VI).
In the case of B1, the “Ratio rCT/rAmylin binding” value came to 42.9.

For B2, the “Ratio rCT/rAmylin binding” value is 85.4.

With B3, the “Ratio rCT/rAmylin binding” value came out at 35.8.

Turning to B4, the “Ratio rCT/rAmylin binding” value worked out at 96.5.

Consider B5, for which the “Ratio rCT/rAmylin binding” value is 42.8.

A further assay deals with T2, human calcitonin receptor. Kind of assay: IC50 on human CTR divided by IC50 on human amylin receptor (Assays VII/V). In outline: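 Scintillation proximity competition binding on cell membranes at 35 ng/μL with SPA beads, in 50 mM Hepes pH 7.4, 1 mM CaCl2, 5 mM MgCl₂, 0.1% OA, 0.02% Tween20. Incubated 120 min at 25° C with shaking. IC₅₀ from one-site competition fit.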
As for B1, the “Ratio hCT/hAmylin binding” value is 87.2.

Turning to B2, the “Ratio hCT/hAmylin binding” value worked out at 51.6.

As to B3, the “Ratio hCT/hAmylin binding” value was 45.5.

With B4, the “Ratio hCT/hAmylin binding” value was 60.8.

As for B5, the “Ratio hCT/hAmylin binding” value was 63.

A further assay addresses T1, rat calcitonin receptor. Kind of assay: SPA competition with 125I-calcitonin, membranes of BHK cells with rat CTR (Assay VIII).
On to B1, for which the IC50 – broadly, the point on the concentration scale where inhibition reaches its midpoint – worked out at 61.1 nM.

For the molecule B2, the IC50 was determined as 14.7 nM.

Regarding B3, the IC50 is 20.8 nM.

For the molecule B4, the IC50 was 34.2 nM.

B5: the half-maximal inhibitory concentration (IC50) was 18 nM.

In the next assay the target is T3, rat amylin receptor (rat calcitonin …). The assay can be described thus: SPA competition with 125I-rat amylin, membranes of BHK cells with rat CTR + rat RAMP3 (Assay VI).
As to B1, the IC50 turned out to be 1.42 nM.

On to B2, for which the IC50 turned out to be 0.172 nM.

For B3, the IC50 was found to be 0.581 nM.

Regarding B4, the IC50 amounted to 0.355 nM.

Take B5: the IC50 turned out to be 0.42 nM.
